Assay results published in the supplement of paper PMC9170038.

system: K4 kissing-loop RNA reporter; test: apparent KD of K4 kissing-loop reporter; higher = weaker reporter binding; settings: Eterna round: R107; input ligand: arginine 13.2 mM
Protocol: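 RNA-MaP round R107: designed RNA switches with theophylline, tryptophan, arginine or FMN aptamers are transcribed on-chip within common flanks. They are titrated with a labelled K4 kissing-loop RNA reporter in RNA-MaP buffer (100 mM Tris pH 7.5, 80 mM KCl, 4 mM MgCl2), without ligand or with the indicated ligand. Median apparent KD per design.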
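Note: bound reporter read as fluorescence of individual clusters on recovered sequencing chips by microscopy, with normalized cluster intensities fitted with a binding model.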

Compared with “UGGAGUUGACGAAAAGUCAACUCCUGAGAUACCAGUGACGAAAGUCACCCUUGGCAGCUCACUGGCAGUGAUGUUGCAAAAUAAA [KL-SSTheo-A4]”, “AUGCGCGUGCGAUGAAAAUCGCACGCGCAUCGAGGACCGGUACGGCCGCCACUCGCUCGCGCCGAGUGAUGUUCGGCCGGCGAAC [#2 Same State - Tryptophan A Attempt #4 (HarryS)]” is 5.1-fold higher in “apparent KD of K4 kissing-loop reporter” value: 52.2 nM for the first, 268 nM for the second.

“AUAGGAGUGAUGUUCCUUAGUUUCUCCGAUACCAGUAUGGAAACAUACCCUUGGCAGCGGGAAACCGCUGAUUAGGAAACUAGUC [Theophylline A K4 7]” and “GGCAGUGAUGUUGCCAGUGGCAGAUGCGAAGGAGCGCGGUGAGACGCAGGUAGGUCGCGCAUUGAAAUUGCUGUCACUAAAAUGC [#1]” are within 1.5-fold of each other in “apparent KD of K4 kissing-loop reporter” value: 271 nM for the first, 274 nM for the second.

Going from “AAUUUACAAUAAUCAUUUAAAGGAUCAGAAGGAGCGUGAAAUAACACAGGUAGGUCGCUGAGCGAGUGAUGUUCGCUAUAUACAA [JR_ExcArginiA_Sub001]” to “GCCGUACGCAUGGAUACCAGUCUAAGAGUGAUGUUCUUACCGAUUGCGCCUGGAUCAUUAGACCCUUGGCAGCCAUGCGUACGGC”, the “apparent KD of K4 kissing-loop reporter” value rises from 68.7 nM to 117 nM (1.7-fold).

“GAUCUGAACGAAAGUUCGGAUCAUUCCGAUACCAGUAUGGAUUCAUACCCUUGGCAGCGGGAUUCUGCUAUGGAGUGAUGUUCCA [Theophylline A K4 15]” and “GGGAGUAGUGCGGCCGCCACUGAGAAAGAAGAAGAAUGUAGUGAUGUUAUGUAGGAAAGGAAGAACAGGACCGGGCAUUAGAUUU [SSTRyptB.H]” are within 1.5-fold of each other in “apparent KD of K4 kissing-loop reporter” value: 332 nM for the first, 443 nM for the second.

“CGCAGUGAUGUUGCGAAUAUAAUAACGGAAGGAGCGCGUGAAAACGCAGGUAGGUCGCCGAUUGGUAUGAUGGAAACAUCGUACC [Arginine A K4 9]” and “AAAUCUUUCAGAAGGAGCGUGGAUUAUUCAUAUAUAUUUAUUACGAGUGAUGUUCGUAAUUCACAGGUAGGUCGCUGUUCAAUAA [JR_ExcArginiB_Sub005]” are within 1.5-fold of each other in “apparent KD of K4 kissing-loop reporter” value: 134 nM for the first, 116 nM for the second.

Compared with “UAAGAGUCUCUGCAAUUAGCAGAGACUCAACGAGGACCGGUACGGCCGCCACUCGGGUCCUAGAGUGAUGUUCUAAUAAUAUAAU [AK1.1 SS Tryptophan A]”, “UGAUAAAGCAGUGAUGUUGCAAGUAAUGAUACCAGUUAAGAAGAGAACCCUUGGCAGCAUAAAGUGCGCUCUGAUGAGUGUGCUU [whbob_SS_Theo_A_w52]” is 2.8-fold lower in “apparent KD of K4 kissing-loop reporter” value: 359 nM for the first, 130 nM for the second.

Going from “UGAUACCAGACGGCCGCCACUCCUGCAAGUCAAAGACUUGCUAAAAGGAUCGUCCAGUGAUGUUGGAGGACCGGGUCUGGUAUCU [TrypBX 19 #SwitchBubble #Palindromic #StaticStem]” to “GCUCAGGAGUGAUGUUCCUAGUGAUGUUAACGAGGACCGGUACGGCCGCCACUCGAUACGGCCGGACCGUAGGAUAAACUAGAGC [Same State - Tryptophan A (Freestyle 10)]”, the “apparent KD of K4 kissing-loop reporter” value falls from 621 nM to 238 nM (2.6-fold).

Compared with “UCUCGGGCCAGUGAUGUUGGCGGCUAGUGGCGAGGACCGGUACGGCCGCCACUCGGCGCAGCAGCGGAGUGAUGUUUCGUGAGUA [Same State Tryptophan A GF 17]”, “AAACGUUGGUGCGAUACCAGCUUGAUCGGUAAACGAUCUACUGGAGUGAUGUUCCUAAAUAGCCCUUGGCAGCGCACCGACGAAA [MAT - Same State Theophlline B - Mod of Eli - D8]” is 1.9-fold lower in “apparent KD of K4 kissing-loop reporter” value: 301 nM for the first, 155 nM for the second.

Going from “AGUCCGCUCCAAGGAUAUAGUCCGGCUGCGCGUCAGUGAUGUUGAAGAAGUAUCGCGUCUCUAUAGCUAGAAGGUGGCGCAAUUG [theeternabot_sameState_KL_FMN_B_20]” to “UUUAGGAGCGGUGUUGAUUAGGGAGCGGAAGGAGCGCCGAUUAUGGCAGGUAGGUCGCCGGAAUGUAGUGAUGUUGCAUAGAGGG [ExArgA.V]”, the “apparent KD of K4 kissing-loop reporter” value falls from 471 nM to 186 nM (2.5-fold).

Compared with “UAUAGACAAGUGAUGUUUGUCAUAUCCGAAGGAGCGUCUUCUAAGACAGGUAGGUCGCGGAUUAAUUUUGUUAUGAUACUAUUUA [JR_SSArginiA_Sub016]”, “UUGAGUGAUGUUCAAUUAAUGUGCAACGAUACCAGCUCAUAUGCUAGCCCUUGGCAGCGUGGUAACGUAAUUUUAUCAAAUGAUA [theeternabot_exclusion_KL_Theo_A_39]” is 1.7-fold higher in “apparent KD of K4 kissing-loop reporter” value: 120 nM for the first, 199 nM for the second.

Going from “GGUUAGUGAUGUUGAUCAAAUCGCGGUGAUACCAGCAACACAUCGUGCCCUUGGCAGCACGGCAAAAUGAAUGCGGUCGAAUGCG [theeternabot_exclusion_KL_Theo_A_19]” to “UCCUGCAAUCUGCCACGAAAGUGGGUUGAUACCAGAGUCGAAAGACUCCCUUGGCAGCGAGUGAUGUUCGUUGCAGGUGAAUAAA [MatMod 9 - Jieux - Exclusion - Theophylline A]”, the “apparent KD of K4 kissing-loop reporter” value falls from 484 nM to 264 nM (1.8-fold).

Compared with “GUCCCGAGUGAUGUUCGGGUCGUUCGGGAAGGAGCGCCCGGAAGGGCAGGUAGGUCGCCCGGAUCCCUCAGGUAACUGAGGGACC [#2 Same State - Arginine A Attempt #25 (HarryS)]”, “AAUGUAUGGCACAUGAGUGAUGUUCAUGUCCGAGGACCGGUACGGCCGCCACUCGGUCCUGGGUUCUUAUUACUAUACAUUAAUG [KL-XTryp-A2 #analogue]” is 2.5-fold lower in “apparent KD of K4 kissing-loop reporter” value: 334 nM for the first, 133 nM for the second.

“GCCGUACGCAUGGAUACCAGAUGGCACUAUUUUCUCCCAGAGUGAUGUUCUGGCCUGCCUAUCCCUUGGCAGCCAUGCGUACGGC” and “AGAUUCGACACGGCCGCCACUUCCAGUGGCUGGUGUCAUGGUGCACGUGAGUGAUGUUUAUGUGGAAGGACCGGGUGUUGAGUCU [KL-XTryp-B2 #analogue]” are within 1.5-fold of each other in “apparent KD of K4 kissing-loop reporter” value: 616 nM for the first, 472 nM for the second.

Compared with “AAACGUUGGUGCGAUACCAGCUGAUCGGAAACGAUCUUGCUGGAGUGAUGUUCCAAGUAAAGCCCUUGGCAGCGCACCGACGAAA [MAT - Same State Theophlline B - Mod of Eli - D22]”, “AGGCCCGGCCGAAAGGCCGGGCCAAGAGAUACCAGCAGCGAAAGCUGCCCUUGGCAGCUCACUUAGUGAUGUUAAGAAUAGAACA [SS Theo A Tesla 1]” is 7.9-fold higher in “apparent KD of K4 kissing-loop reporter” value: 58.4 nM for the first, 464 nM for the second.

“UUGUCCGGGUGAUGGUCAUCACGUGGCGGGCGAGGACCGGUACGGCCGCCACUCGACUUUGCAGUGAUGUUGCAAACCGGACAAU [Exclusion - Tryptophan A (Freestyle 23)]” and “AUUUAAUGUAUAGAUUAUAUACAUUAUUCAGAGGAUAUGCAUUGAAGCAGAAGGCUGGGUGUAGUGAUGUUGCAAUUUUAAUUUA [whbob_SS_FMNA__2th172]” are within 1.5-fold of each other in “apparent KD of K4 kissing-loop reporter” value: 174 nM for the first, 184 nM for the second.

“GUGCGGCUAGUGAUGUUGGUUGUGUGGGAAGGAGCGCAGAUUCAUGCAGGUAGGUCGCCCACACGUCUGAAAGGAUGAUAAUUCA [#12 K4 Arginine A Same State]” and “GACGGGUUCCUGCUCAAUCCGUCGCAUGAUCGAGGACCGGUACGGCCGCCACUCGAGGCCAUGCCGUACGAGUGAUGUUCGUGCG [Xeon]” are within 1.5-fold of each other in “apparent KD of K4 kissing-loop reporter” value: 306 nM for the first, 367 nM for the second.

same assay, conditions: Eterna round: R107; input ligand: none

First: AUGGUUGUCGUAGGAUAUGUAGGUAAUUCCUAUAGCAGUGAUGUUGCUAAUAUCUUGGAAGAAGGAACAGAAGGACGAUAACCAC [KL-SSFMN-B1 #analogue]
Second: AGGCCACACAGCGAGUGAUGUUUGCGUUAUCGAGGACCGGUACGGCCGCCACUCGGCCUUUAGCGCCUUACCAAUUAGGUGUUGC [theeternabot_sameState_KL_Trp_A_46]
The “apparent KD of K4 kissing-loop reporter” value of the first is 5.9-fold lower: 124 nM for the first, 731 nM for the second.

Compared with “UAUAUACAUUUAUUAAUUAAAGGUUCAGAAGGAGCGUGAAUUAACACAGGUAGGUCGCUGAGCGAGUGAUGUUCGCUAUAUGGAA [JR_ExcArginiA_Sub006]”, “UCGGUAUAGUGAUGUUAUAUAGAGAGUGAUACCAGUUUAGAGAGAAACCCUUGGCAGCAUAGAAGAGUAUCAUUGGAGGAGGAGG [#20 K4 Theophylline A Exclusion]” is 6.8-fold higher in “apparent KD of K4 kissing-loop reporter” value: 57 nM for the first, 387 nM for the second.

Compared with “UGAUACCAGACGGCCGCCACUGGUGCAUGUCAAAGACAUGCUAACCAAAUCGUGGAGUGAUGUUCCAGGACCGGGUCUGGUAUCU [TrypBX 22 #SwitchBubble #Palindromic #StaticStem]”, “AAUGUACAGGGAAGGAGCGCCGUCCAGUGAUGUUGGAGUUAAAUACCAGUGAUGUUGGUUAGGCAGGUAGGUCGCCCUAUAGUAU [#07 K4 Arginine B Exclusion]” is 1.9-fold lower in “apparent KD of K4 kissing-loop reporter” value: 217 nM for the first, 117 nM for the second.

“AGUAGUUGGACGGCCGCCACUAGAACGGCUUUGCCAAAGGCAGAGCACUAGAGUGAUGUUCUAGCUAGGACCGGGUCCAACUACA [Omei KL Tryp B SS A v3]” and “UGGGAUGUUAAAGGAUAUAGCAAGUGAUAUAAGAAAGUGAGUGAUGUUUAUGUAGGUGAUGAUAUGUUAGAAGGUUAACAAAACG [abcdefgh]” are within 1.5-fold of each other in “apparent KD of K4 kissing-loop reporter” value: 191 nM for the first, 211 nM for the second.

Compared with “UAUAUAGUGACGGCCGCCACUAUAUUAAUGUUUUUGUUAGAGUGAUGUUUUGUUUAAUAUUUUUAUAGGACCGGGUUAUAUGUUA [zsqqxmullin]”, “GGUAGCAUGGCGGCCGCCACUAACAACCUCACCUGCGGCUCGAUCGAGUGAUGUUCGAACGCAAUUAGGACCGGGCCAUGCUACC” is 4.5-fold lower in “apparent KD of K4 kissing-loop reporter” value: 641 nM for the first, 141 nM for the second.

First: UGGAGUUGACGAAAAGUCAACUCCUGAGAUACCAGUGACGAAAGUCACCCUUGGCAGCUCACUGGCAGUGAUGUUGCAAAAUAAA [KL-SSTheo-A4]
Second: AUGCGCGUGCGAUGAAAAUCGCACGCGCAUCGAGGACCGGUACGGCCGCCACUCGCUCGCGCCGAGUGAUGUUCGGCCGGCGAAC [#2 Same State - Tryptophan A Attempt #4 (HarryS)]
The “apparent KD of K4 kissing-loop reporter” value of the first is 4.5-fold lower: 60 nM for the first, 267 nM for the second.

“AUAGGAGUGAUGUUCCUUAGUUUCUCCGAUACCAGUAUGGAAACAUACCCUUGGCAGCGGGAAACCGCUGAUUAGGAAACUAGUC [Theophylline A K4 7]” and “GGCAGUGAUGUUGCCAGUGGCAGAUGCGAAGGAGCGCGGUGAGACGCAGGUAGGUCGCGCAUUGAAAUUGCUGUCACUAAAAUGC [#1]” are within 1.5-fold of each other in “apparent KD of K4 kissing-loop reporter” value: 282 nM for the first, 290 nM for the second.

Compared with “AAUUUACAAUAAUCAUUUAAAGGAUCAGAAGGAGCGUGAAAUAACACAGGUAGGUCGCUGAGCGAGUGAUGUUCGCUAUAUACAA [JR_ExcArginiA_Sub001]”, “GCCGUACGCAUGGAUACCAGUCUAAGAGUGAUGUUCUUACCGAUUGCGCCUGGAUCAUUAGACCCUUGGCAGCCAUGCGUACGGC” is 1.8-fold higher in “apparent KD of K4 kissing-loop reporter” value: 68.8 nM for the first, 126 nM for the second.

“GAUCUGAACGAAAGUUCGGAUCAUUCCGAUACCAGUAUGGAUUCAUACCCUUGGCAGCGGGAUUCUGCUAUGGAGUGAUGUUCCA [Theophylline A K4 15]” and “GGGAGUAGUGCGGCCGCCACUGAGAAAGAAGAAGAAUGUAGUGAUGUUAUGUAGGAAAGGAAGAACAGGACCGGGCAUUAGAUUU [SSTRyptB.H]” are within 1.5-fold of each other in “apparent KD of K4 kissing-loop reporter” value: 475 nM for the first, 354 nM for the second.

“CGCAGUGAUGUUGCGAAUAUAAUAACGGAAGGAGCGCGUGAAAACGCAGGUAGGUCGCCGAUUGGUAUGAUGGAAACAUCGUACC [Arginine A K4 9]” and “AAAUCUUUCAGAAGGAGCGUGGAUUAUUCAUAUAUAUUUAUUACGAGUGAUGUUCGUAAUUCACAGGUAGGUCGCUGUUCAAUAA [JR_ExcArginiB_Sub005]” are within 1.5-fold of each other in “apparent KD of K4 kissing-loop reporter” value: 125 nM for the first, 113 nM for the second.

With “UAAGAGUCUCUGCAAUUAGCAGAGACUCAACGAGGACCGGUACGGCCGCCACUCGGGUCCUAGAGUGAUGUUCUAAUAAUAUAAU [AK1.1 SS Tryptophan A]” the “apparent KD of K4 kissing-loop reporter” value was 548 nM.
